By EC50 (read off the curve) is commonly meant the concentration at which the effect is half-maximal. Low readings indicate an effect from little substance, high ones a need for much substance.

The target of test [1] is T1, human CXCL1 protein (human, UniProt P09341 35-107).
T1 sequence: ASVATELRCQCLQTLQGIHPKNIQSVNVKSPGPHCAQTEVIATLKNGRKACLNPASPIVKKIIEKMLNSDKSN
The test is described as follows: cell-based or functional assay.

Test [2] deals with T1, human CXCL1 protein. The test is described as follows: antigen-immobilized ELISA, HuCXCL1 on the plate, absorbance (upper right panel; label printed mh4A-7H10, taken as the 4A-2F7 panel). Background: In an ELISA, binding on a coated surface is turned into a signal by an enzyme label.
For test [3], the target named is T1, human CXCL1 protein. The experiment in a line: antigen-immobilized ELISA, HuCXCL1 on the plate, absorbance (lower left panel).
For test [4], the target named is T1, human CXCL1 protein. The experiment in a line: antigen-immobilized ELISA, HuCXCL1 on the plate, absorbance (lower right panel).
Test [5] addresses T1, human CXCL1 protein. The test is described as follows: antigen-immobilized ELISA, HuCXCL1 on the plate, absorbance (upper right panel; chimeric label printed mh4A-7H10, taken as the 4A-2F7 panel).
The target in test [6] is T1, human CXCL1 protein. The experiment in a line: antigen-immobilized ELISA, HuCXCL1 on the plate, absorbance (upper left panel).

B1: 4A-2F7 (antibody, V domains shown)
VH: QVTLKESGPGILKPSQTLSLTCSFSGFSLSTSGMGVDWIRQPSGKGLEWLAHIWWDDDKYYNPSLKSQLTISKDTSRNQVFLKITSVDTADTATYYCARSYGYDMDYYAMDYWGQGTSVTVSS
VL: DIQMTQSPSSLSASLGERVSLTCRASQEISGYLSWLQQKPDGTIKRLIYAASTLDSGVPKRFSGSRSGSDYSLTISSLESEDFADYYCLQYASYPPWTFGGGTKLEIK
In the case of B1, the “HuCXCL1 neutralizing activity EC50 (nM), Ca^2+ Flux assay” value (from here on “HuCXCL1 neutralizing activity EC50 (nM)”) with human CXCL1 protein [1] was 4.8 nM.

B2: mh4A-2F7_VH/VL1 (antibody, V domains shown)
VH: QVTLKESGPGILKPSQTLSLTCSFSGFSLSTSGMGVDWIRQPSGKGLEWLAHIWWDDDKYYNPSLKSQLTISKDTSRNQVFLKITSVDTADTATYYCARSYGYDMDYYAMDYWGQGTSVTVSS
VL: DIQMTQSPSSLSASLGERVSLTCRASQEISGYLSWLQQKPDGTIKRLIYAASTLSSGVPKRFSGSRSGSDYSLTISSLESEDFADYYCLQYASYPPWTFGGGTKLEIK
As for B2, the “EC50 (read off the curve)” value with human CXCL1 protein [2] is around 20 ng/mL.

B3: Hu5A-5E11 VH1/VL2 (antibody, V domains shown)
VH: QVQLVQSGAEVKKPGSSVKVSCKASGYAFSDYWMNWVRQAPGQGLEWIGQIYPGSGDTNYNAKFKGKGTITADKSTSTAYMELSSLRSEDTAVYYCARERDYDVAMDYWGQGTTVTVSS
VL: DIQMTQSPSSLSASVGDRVTITCKASQDINKYIAWFQQKPGKAPKLVIHYTSILQPGVPSRFSGVGSGTDYTFTISSLQPEDIATYYCLQYDNLPWTFGGGTKVEIK
notes: Humanized antibody
For B3, the “EC50 (read off the curve)” value with human CXCL1 protein [3] is around 20 ng/mL.

B4: Hu5A-5E11 VH2/VL1 (antibody, V domains shown)
VH: QVQLVQSGAEVKKPGSSVKVSCKASGYAFSDYWMNWVRQAPGQGLEWIGQIYPGSGDTNYNAKFKGKGTLTADKSTSTAYMELSSLRSEDTAVYYCARERDYDVAMDYWGQGTTVTVSS
VL: DIQMTQSPSSLSASVGDRVTITCKASQDINKYIAWFQQKPGKAPKLVIHYTSILQPGVPSRFSGSGSGTDYTFTISSLQPEDIATYYCLQYDNLPWTFGGGTKVEIK
notes: Humanized antibody
Regarding B4, in the test with human CXCL1 protein [3], the “EC50 (read off the curve)” value is around 20 ng/mL.

B5: Hu5A-5E11 VH2/VL2 (antibody, V domains shown)
VH: QVQLVQSGAEVKKPGSSVKVSCKASGYAFSDYWMNWVRQAPGQGLEWIGQIYPGSGDTNYNAKFKGKGTLTADKSTSTAYMELSSLRSEDTAVYYCARERDYDVAMDYWGQGTTVTVSS
VL: DIQMTQSPSSLSASVGDRVTITCKASQDINKYIAWFQQKPGKAPKLVIHYTSILQPGVPSRFSGVGSGTDYTFTISSLQPEDIATYYCLQYDNLPWTFGGGTKVEIK
notes: Humanized antibody
As for B5, the “EC50 (read off the curve)” value with human CXCL1 protein [3] was around 20 ng/mL.

B6: 028-8-12 (antibody, V domains shown)
VH: EVQLLESGGGLVQPGGSLRLSCAASGFTFSELSMSWVRQAPGKGLEWVSAISGSGGSTYYADSVKGRFTISRDNSKNTLYLQMNSLRAEDTAVYYCAREGGRLEPYYYYYAMDVWGQGTPVTVSS
VL: DIQMTQSPSSLSASVGDRVTITCRASQSISDNLHWYQQKPGKAPKLLIYDASNLESGVPSRFSGSGSGTDFTLTINSLQPEDFATYYCQQYYSTPLTFGQGTKLEIK
notes: Unmodified human antibody obtained by the human ADLib technique; also called ADLib#028-08-12; ADLib #028-8-12
Turning to B6, the “EC50 (read off the curve)” value with human CXCL1 protein [4] was around 40 ng/mL. Further, the “HuCXCL1 neutralizing activity EC50 (nM)” value in the test with human CXCL1 protein [1] came to 5.73 nM.

B7: ADLib#028-8-12_VH1/VL1 (antibody, V domains shown)
VH: EVQLLESGGGLVQPGGSLRLSCAASGFTFSELSMSWVRQAPGKGLEWVSAISGSGGSTYYASSVKGRFTISRDNSKNTLYLQMNSLRAEDTAVYYCAREGGRLEPYYYYYAMDVWGQGTPVTVSS
VL: DIQMTQSPSSLSASVGDRVTITCRASQSISDNLHWYQQKPGKAPKLLIYDASNLESGVPSRFSGSGSGTDFTLTISSLQPEDFATYYCQQYYSTPLTFGQGTKLEIK
notes: Amino acid-modified human antibody; also called modified human antibody 028-8-12
As for B7, the “EC50 (read off the curve)” value with human CXCL1 protein [4] was around 40 ng/mL.

B8: Hu4A-2F7 VH1/VL1 (antibody, V domains shown)
VH: QVTLKESGPALVKPTQTLTLTCTFSGFSLSTSGMGVDWIRQPPGKALEWLAHIWWDDDKYYNPSLKSQLTISKDTSKNQVVLTMTNMDPVDTATYYCARSYGYDMDYYAMDYWGQGTTVTVSS
VL: DIQMTQSPSSLSASVGDRVTITCRASQEISGYLSWLQQKPGKAPKRLIYAASTLSSGVPSRFSGSGSGTDFTLTISSLQPEDFATYYCLQYASYPPWTFGGGTKVEIK
Take B8: the “EC50 (read off the curve)” value in the test with human CXCL1 protein [5] was around 20 ng/mL.

B9: Hu4A-2F7 VH2/VL2 (antibody, V domains shown)
VH: QVTLKESGPALVKPTQTLTLTCTFSGFSLSTSGMGVDWIRQPPGKGLEWLAHIWWDDDKYYNPSLKSQLTISKDTSKNQVVLTMTNMDPVDTATYYCARSYGYDMDYYAMDYWGQGTTVTVSS
VL: DIQMTQSPSSLSASVGDRVTITCRASQEISGYLSWLQQKPGKAPKRLIYAASTLSSGVPSRFSGSGSGTDYTLTISSLQPEDFATYYCLQYASYPPWTFGGGTKVEIK
notes: Humanized antibody
With B9, the “EC50 (read off the curve)” value in the test with human CXCL1 protein [5] was around 20 ng/mL.

B10: Hu4A-2F7 VH1/VL2 (antibody, V domains shown)
VH: QVTLKESGPALVKPTQTLTLTCTFSGFSLSTSGMGVDWIRQPPGKALEWLAHIWWDDDKYYNPSLKSQLTISKDTSKNQVVLTMTNMDPVDTATYYCARSYGYDMDYYAMDYWGQGTTVTVSS
VL: DIQMTQSPSSLSASVGDRVTITCRASQEISGYLSWLQQKPGKAPKRLIYAASTLSSGVPSRFSGSGSGTDYTLTISSLQPEDFATYYCLQYASYPPWTFGGGTKVEIK
notes: Humanized antibody
Regarding B10, the “EC50 (read off the curve)” value with human CXCL1 protein [5] was around 20 ng/mL.

B11: Hu4A-2F7 VH2/VL1 (antibody, V domains shown)
VH: QVTLKESGPALVKPTQTLTLTCTFSGFSLSTSGMGVDWIRQPPGKGLEWLAHIWWDDDKYYNPSLKSQLTISKDTSKNQVVLTMTNMDPVDTATYYCARSYGYDMDYYAMDYWGQGTTVTVSS
VL: DIQMTQSPSSLSASVGDRVTITCRASQEISGYLSWLQQKPGKAPKRLIYAASTLSSGVPSRFSGSGSGTDFTLTISSLQPEDFATYYCLQYASYPPWTFGGGTKVEIK
notes: Humanized antibody
Regarding B11, the “EC50 (read off the curve)” value in the test with human CXCL1 protein [5] is around 20 ng/mL.

B12: 1A-7H10 (antibody, V domains shown)
VH: QVQLKESGPVLVAPSQSLSITCSVSGFSSTTYGVHWVRQPPGQGLEWLGVIWAGGSTNYNSALMSRLSISKDNSKSQVFLKMNSLQTDDTAMYYCATQYHYPFAYWGQGTLVTVSA
VL: NIVMTQSPKSMSMSVGERVTLSCKASENVGIYVSWYQQKPEQSPKLMIYGASNRNTGVPDRFTGSGSATDFTLTISSVQAEDLADYYCGQSYSYPLTFGAGTKLELK
In the case of B12, in the test with human CXCL1 protein [1], the “HuCXCL1 neutralizing activity EC50 (nM)” value was 6.24 nM.

B13: mh1A-7H10_VH1/VL (antibody, V domains shown)
VH: QVQLKESGPVLVAPSQSLSITCSVSGFSSTTYGVHWVRQPPGQGLEWLGVIWAGGSTNYNAALMSRLSISKDNSKSQVFLKMNSLQTDDTAMYYCATQYHYPFAYWGQGTLVTVSA
VL: NIVMTQSPKSMSMSVGERVTLSCKASENVGIYVSWYQQKPEQSPKLMIYGASNRNTGVPDRFTGSGSATDFTLTISSVQAEDLADYYCGQSYSYPLTFGAGTKLELK
As for B13, in the test with human CXCL1 protein [6], the “EC50 (read off the curve)” value is around 20 ng/mL.

B14: Hu1A-7H10 VH1/VL1 (antibody, V domains shown)
VH: QVTLKESGPVLVKPTETLTLTCTVSGFSSTTYGVHWVRQPPGKALEWLGVIWAGGSTNYNAALMSRLTISKDTSKSQVVLTMTNMDPVDTATYYCATQYHYPFAYWGQGTLVTVSS
VL: DIQMTQSPSSLSASVGDRVTITCKASENVGIYVSWYQQKPGKAPKLMIYGASNRNTGVPSRFSGSGSGTDFTLTISSLQPEDFATYYCGQSYSYPLTFGGGTKVEIK
Regarding B14, in the test with human CXCL1 protein [6], the “EC50 (read off the curve)” value is around 20 ng/mL.

B15: Hu1A-7H10 VH1/VL2 (antibody, V domains shown)
VH: QVTLKESGPVLVKPTETLTLTCTVSGFSSTTYGVHWVRQPPGKALEWLGVIWAGGSTNYNAALMSRLTISKDTSKSQVVLTMTNMDPVDTATYYCATQYHYPFAYWGQGTLVTVSS
VL: DIQMTQSPSSLSASVGDRVTITCKASENVGIYVSWYQQKPGKAPKLMIYGASNRNTGVPSRFSGSGSATDFTLTISSLQPEDFATYYCGQSYSYPLTFGGGTKVEIK
notes: Humanized antibody
For the molecule B15, in the test with human CXCL1 protein [6], the “EC50 (read off the curve)” value was around 20 ng/mL.

B16: Hu1A-7H10 VH2/VL1 (antibody, V domains shown)
VH: QVTLKESGPVLVKPTETLTLTCTVSGFSSTTYGVHWVRQPPGKALEWLGVIWAGGSTNYNAALMSRLTISKDNSKSQVVLTMTNMDPVDTATYYCATQYHYPFAYWGQGTLVTVSS
VL: DIQMTQSPSSLSASVGDRVTITCKASENVGIYVSWYQQKPGKAPKLMIYGASNRNTGVPSRFSGSGSGTDFTLTISSLQPEDFATYYCGQSYSYPLTFGGGTKVEIK
notes: Humanized antibody
As to B16, the “EC50 (read off the curve)” value with human CXCL1 protein [6] was around 20 ng/mL.

B17: Hu1A-7H10 VH2/VL2 (antibody, V domains shown)
VH: QVTLKESGPVLVKPTETLTLTCTVSGFSSTTYGVHWVRQPPGKALEWLGVIWAGGSTNYNAALMSRLTISKDNSKSQVVLTMTNMDPVDTATYYCATQYHYPFAYWGQGTLVTVSS
VL: DIQMTQSPSSLSASVGDRVTITCKASENVGIYVSWYQQKPGKAPKLMIYGASNRNTGVPSRFSGSGSATDFTLTISSLQPEDFATYYCGQSYSYPLTFGGGTKVEIK
notes: Humanized antibody
In the case of B17, in the test with human CXCL1 protein [6], the “EC50 (read off the curve)” value was around 20 ng/mL.

B18: 5A-5E11 (antibody, V domains shown)
VH: QVQLQQSGAELVRPGSSVKISCKASGYAFSDYWMNWVKQRPGQGLEWIGQIYPGDGDTNYNGKFKGKGTLTADKSSSTAYMQLNSLTSEDSAVYFCARERDYDVAMDYWGQGTSVTVSS
VL: DIQMTQSPSSLSASLGGKVTITCKASQDINKYIAWFQHKPGKGPRLVIHYTSILQPGIPSRFSGVGSGRDYSFSIRNLEPEDIATYYCLQYDNLPWTFGGGTKLEIK
Turning to B18, the “HuCXCL1 neutralizing activity EC50 (nM)” value with human CXCL1 protein [1] amounted to 3.96 nM.

B19: mh5A-5E11_VH7/VL (antibody, V domains shown)
VH: QVQLQQSGAELVRPGSSVKISCKASGYAFSDYWMNWVKQRPGQGLEWIGQIYPGSGDTNYNAKFKGKGTLTADKSSSTAYMQLNSLTSEDSAVYFCARERDYDVAMDYWGQGTSVTVSS
VL: DIQMTQSPSSLSASLGGKVTITCKASQDINKYIAWFQHKPGKGPRLVIHYTSILQPGIPSRFSGVGSGRDYSFSIRNLEPEDIATYYCLQYDNLPWTFGGGTKLEIK
Regarding B19, in the test with human CXCL1 protein [3], the “EC50 (read off the curve)” value is around 20 ng/mL.

For the origin of these results see patent US20250154240A1 (CHIOME BIOSCIENCE, published 2025).
